The results in this text go back to paper PMC4010901 (The Journal of Experimental Medicine, 2014).

The Kd is the concentration at which binding is half-saturated.

Assay [1] addresses T1, recombinant hRGMb-HIS (R&D Systems) (human, UniProt Q6NW40 46-413).
T1 sequence (looked up): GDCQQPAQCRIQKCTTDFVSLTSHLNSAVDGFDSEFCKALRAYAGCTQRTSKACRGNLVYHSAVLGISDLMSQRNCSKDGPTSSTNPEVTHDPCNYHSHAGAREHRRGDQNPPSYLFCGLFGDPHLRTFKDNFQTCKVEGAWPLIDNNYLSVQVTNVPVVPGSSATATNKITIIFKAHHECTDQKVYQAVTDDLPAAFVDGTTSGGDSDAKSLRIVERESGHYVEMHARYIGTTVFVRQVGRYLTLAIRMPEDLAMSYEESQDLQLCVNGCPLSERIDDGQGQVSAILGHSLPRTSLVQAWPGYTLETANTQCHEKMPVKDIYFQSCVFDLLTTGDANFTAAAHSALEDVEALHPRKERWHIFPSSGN
As to the kind of experiment: ELISA.

Assay [2] has as its target T2, recombinant mRGMb-HIS (R&D Systems) (mouse, UniProt Q7TQ33 49-415).
T2 sequence (looked up): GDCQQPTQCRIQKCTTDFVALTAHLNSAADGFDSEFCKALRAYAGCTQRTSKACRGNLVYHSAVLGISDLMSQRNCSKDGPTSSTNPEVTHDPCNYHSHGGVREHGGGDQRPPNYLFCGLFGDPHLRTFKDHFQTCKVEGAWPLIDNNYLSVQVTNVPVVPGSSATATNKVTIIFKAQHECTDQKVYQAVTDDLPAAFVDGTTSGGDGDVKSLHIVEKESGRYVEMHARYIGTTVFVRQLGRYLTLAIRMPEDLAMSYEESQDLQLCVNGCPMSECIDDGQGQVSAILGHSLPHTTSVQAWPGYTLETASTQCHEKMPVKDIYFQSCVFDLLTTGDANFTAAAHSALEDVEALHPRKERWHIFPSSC
As to the kind of experiment: ELISA. For orientation: ELISA stands for enzyme-linked immunosorbent assay.

The target in assay [3] is T1, recombinant hRGMb-HIS (R&D Systems). Description: ELISA. The source holds these as a separate data set.
Assay [4] addresses T3, RGMb (R&D Systems) immobilised for Biacore ( (mouse and human RGMb-HIS …, UniProt Q7TQ33 49-415)).
T3 sequence (looked up): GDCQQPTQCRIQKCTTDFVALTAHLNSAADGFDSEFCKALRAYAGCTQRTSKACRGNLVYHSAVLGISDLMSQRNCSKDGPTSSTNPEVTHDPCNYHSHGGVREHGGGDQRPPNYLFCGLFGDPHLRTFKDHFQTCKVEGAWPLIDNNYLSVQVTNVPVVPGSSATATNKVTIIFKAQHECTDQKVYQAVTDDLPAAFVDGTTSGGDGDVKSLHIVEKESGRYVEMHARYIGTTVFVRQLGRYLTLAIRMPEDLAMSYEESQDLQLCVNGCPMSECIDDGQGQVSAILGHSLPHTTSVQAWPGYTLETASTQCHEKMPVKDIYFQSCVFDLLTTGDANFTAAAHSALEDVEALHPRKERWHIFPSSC
Description: SPR. A general note: Surface plasmon resonance follows binding to a sensor surface in real time, without labels.

In assay [5] the target is T2, recombinant mRGMb-HIS (R&D Systems). As to the kind of experiment: ELISA. The source holds these as a separate data set.
Assay [6] has the same target. Description: ELISA. The source holds these as a separate data set.

Read-outs that look alike come from different tables or passages of the source.

B1: hPD-L2-mIgG2a fusion protein (Fc fusion, human, UniProt Q9BQ51 20-220, looked up)
chain: LFTVTVPKELYIIEHGSNVTLECNFDTGSHVNLGAITASLQKVENDTSPHRERATLLEEQLPLGKASFHIPQVQVRDEGQYQCIIIYGVAWDYKYLTLKVKASYRKINTHILKVPETDEVELTCQATGYPLAEVSWPNVSVPANTSHSRTPEGLYQVTSVLRLKPPPGRNFSCVFWNTHVRELTLASIDLQSQMEPRTHPT
Turning to B1, the binding result in assay [1] and in assay [2] was “binds” each time.

B2: mPD-L2-hIgG1/IgA fusion protein (Fc fusion, mouse, UniProt Q9WUL5 20-221, looked up)
chain: LFTVTAPKEVYTVDVGSSVSLECDFDRRECTELEGIRASLQKVENDTSLQSERATLLEEQLPLGKALFHIPSVQVRDSGQYRCLVICGAAWDYKYLTVKVKASYMRIDTRILEVPGTGEVQLTCQARGYPLAEVSWQNVSVPANTSHIRTPEGLYQVTSVLRLKPQPSRNFSCMFWNAHMKELTSAIIDPLSRMEPKVPRTW
Turning to B2, the binding result in assay [3] is “binds”.

B3: mPD-L2-hIgG (R&D Systems) (Fc fusion, mouse, UniProt Q9WUL5 20-221, looked up)
chain: LFTVTAPKEVYTVDVGSSVSLECDFDRRECTELEGIRASLQKVENDTSLQSERATLLEEQLPLGKALFHIPSVQVRDSGQYRCLVICGAAWDYKYLTVKVKASYMRIDTRILEVPGTGEVQLTCQARGYPLAEVSWQNVSVPANTSHIRTPEGLYQVTSVLRLKPQPSRNFSCMFWNAHMKELTSAIIDPLSRMEPKVPRTW
In assay [4], B3 returned a Kd of 48.5 nM.

B4: recombinant mouse BMP-4 (R&D Systems) (ligand, UniProt P21275 293-408, looked up)
chain: SPKHHPQRSRKKNKNCRRHSLYVDFSDVGWNDWIVAPPGYQAFYCHGDCPFPLADHLNSTNHAIVQTLVNSVNSSIPKACCVPTELSAISMLYLDEYDKVVLKNYQEMVVEGCGCR
Consider B4, for which the binding result in assay [5] is on record as “binds”.

B5: recombinant mouse BMP-2 (Invitrogen) (ligand, UniProt P21274 281-394, looked up)
chain: QAKHKQRKRLKSSCKRHPLYVDFSDVGWNDWIVAPPGYHAFYCHGECPFPLADHLNSTNHAIVQTLVNSVNSKIPKACCVPTELSAISMLYLDENEKVVLKNYQDMVVEGCGCR
As to B5, the binding result in assay [6] was “binds”.
